Results from patent US20140087995A1 (published 2014).
Values belong to the binder of their own block, whether it stands above or below them. Numbered stars: 1 amine (or outer) side, 2 acyl side, 3 side chain; on linkers, the order of the positions; unused ones are H or OH. Bridge positions count the residues as written; N and C are the ends. Side chains are listed from the residue outwards. Ends that are not written are not given here. * marks the point of attachment. C20 diacid = O=C(O)CCCCCCCCCCCCCCCCCCC(=O)*; γGlu = O=C(O)[C@H](CCC(=O)[*:2])N[*:1]; AEEA = NCCOCCOCC(=O)O

Biological target: T1, human amylin receptor (amylin 3(a) receptor: human calcitonin receptor with RAMP-3) (human, UniProt P30988 25-474; O60896 24-148)
T1 construct: whole, on cells; also called hAmylin-R; hAmylinR
T1 sequence (looked up) 1: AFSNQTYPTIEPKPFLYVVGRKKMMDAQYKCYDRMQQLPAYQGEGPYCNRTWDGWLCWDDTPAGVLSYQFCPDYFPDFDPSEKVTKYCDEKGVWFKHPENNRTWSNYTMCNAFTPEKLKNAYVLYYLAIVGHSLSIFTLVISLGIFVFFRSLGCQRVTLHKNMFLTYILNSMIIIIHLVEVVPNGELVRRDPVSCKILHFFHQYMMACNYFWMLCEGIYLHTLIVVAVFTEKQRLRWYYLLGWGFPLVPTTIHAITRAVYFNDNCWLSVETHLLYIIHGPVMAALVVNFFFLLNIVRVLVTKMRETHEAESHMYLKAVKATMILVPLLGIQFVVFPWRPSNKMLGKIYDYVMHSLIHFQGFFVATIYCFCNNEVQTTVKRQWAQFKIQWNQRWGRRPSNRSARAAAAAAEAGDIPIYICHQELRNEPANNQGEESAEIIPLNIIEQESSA
T1 sequence (looked up) 2: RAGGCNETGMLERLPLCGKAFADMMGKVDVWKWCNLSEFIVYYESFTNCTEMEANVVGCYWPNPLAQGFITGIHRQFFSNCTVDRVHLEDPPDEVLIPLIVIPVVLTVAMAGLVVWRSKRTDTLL
Test: SPA displacement of 125I-rat amylin, hAmylin 3(a) receptor membranes
Method in brief: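 Cell membranes were prepared by homogenisation in Na-HEPES/EDTA buffer, pH 7.4, and stored at −80° C. They were then coupled to SPA beads at 35 ng/μL final and exposed to compounds in assay buffer containing CaCl2, MgCl₂, OA and Tween20. After 120 min at 25° C, plates were counted and IC₅₀ derived.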

B1: N^ε1-[2-[2-[2-[[2-[2-[2-[[(4S)-4-carboxy-4-(19-carboxynonadecanoylamino)butanoyl]amino]ethoxy]ethoxy]acetyl]amino]ethoxy]ethoxy]acetyl]-[Arg17,Pro21,Pro27,Glu35 … (peptide)
peptide: K([AEEA-AEEA-γGlu-C20 diacid])CNTATCATQRLANFLRHSSPNFGAIPSSTNVGSETY-NH2
modifications: disulfide 2-7; N-terminus assumed
SMILES: CC[C@H](C)[C@H](NC(=O)[C@H](C)NC(=O)CNC(=O)[C@H](Cc1ccccc1)NC(=O)[C@H](CC(N)=O)NC(=O)[C@@H]1CCCN1C(=O)[C@H](CO)NC(=O)[C@H](CO)NC(=O)[C@H](Cc1c[nH]cn1)NC(=O)[C@H](CCCNC(=N)N)NC(=O)[C@H](CC(C)C)NC(=O)[C@H](Cc1ccccc1)NC(=O)[C@H](CC(N)=O)NC(=O)[C@H](C)NC(=O)[C@H](CC(C)C)NC(=O)[C@H](CCCNC(=N)N)NC(=O)[C@H](CCC(N)=O)NC(=O)[C@@H](NC(=O)[C@H](C)NC(=O)[C@@H]1CSSC[C@H](NC(=O)[C@@H](N)CCCCNC(=O)COCCOCCNC(=O)COCCOCCNC(=O)CC[C@H](NC(=O)CCCCCCCCCCCCCCCCCCC(=O)O)C(=O)O)C(=O)N[C@@H](CC(N)=O)C(=O)N[C@@H]([C@@H](C)O)C(=O)N[C@@H](C)C(=O)N[C@@H]([C@@H](C)O)C(=O)N1)[C@@H](C)O)C(=O)N1CCC[C@H]1C(=O)N[C@@H](CO)C(=O)N[C@@H](CO)C(=O)N[C@H](C(=O)N[C@@H](CC(N)=O)C(=O)N[C@H](C(=O)NCC(=O)N[C@@H](CO)C(=O)N[C@@H](CCC(=O)O)C(=O)N[C@H](C(=O)N[C@@H](Cc1ccc(O)cc1)C(N)=O)[C@@H](C)O)C(C)C)[C@@H](C)O
notes: also called 25; compound 25
IC50: 0.768 nM

B3: N^ε1-[2-[2-[2-[[2-[2-[2-[[(4S)-4-carboxy-4-(19-carboxynonadecanoylamino)butanoyl]amino]ethoxy]ethoxy]acetyl]amino]ethoxy]ethoxy]acetyl]-[Arg17,Pro21,Pro27,His34 … (peptide)
peptide: K([AEEA-AEEA-γGlu-C20 diacid])CNTATCATQRLANFLRHSSPNFGAIPSSTNVGHNTY-NH2
modifications: disulfide 2-7; N-terminus assumed
SMILES: CC[C@H](C)[C@H](NC(=O)[C@H](C)NC(=O)CNC(=O)[C@H](Cc1ccccc1)NC(=O)[C@H](CC(N)=O)NC(=O)[C@@H]1CCCN1C(=O)[C@H](CO)NC(=O)[C@H](CO)NC(=O)[C@H](Cc1c[nH]cn1)NC(=O)[C@H](CCCNC(=N)N)NC(=O)[C@H](CC(C)C)NC(=O)[C@H](Cc1ccccc1)NC(=O)[C@H](CC(N)=O)NC(=O)[C@H](C)NC(=O)[C@H](CC(C)C)NC(=O)[C@H](CCCNC(=N)N)NC(=O)[C@H](CCC(N)=O)NC(=O)[C@@H](NC(=O)[C@H](C)NC(=O)[C@@H]1CSSC[C@H](NC(=O)[C@@H](N)CCCCNC(=O)COCCOCCNC(=O)COCCOCCNC(=O)CC[C@H](NC(=O)CCCCCCCCCCCCCCCCCCC(=O)O)C(=O)O)C(=O)N[C@@H](CC(N)=O)C(=O)N[C@@H]([C@@H](C)O)C(=O)N[C@@H](C)C(=O)N[C@@H]([C@@H](C)O)C(=O)N1)[C@@H](C)O)C(=O)N1CCC[C@H]1C(=O)N[C@@H](CO)C(=O)N[C@@H](CO)C(=O)N[C@H](C(=O)N[C@@H](CC(N)=O)C(=O)N[C@H](C(=O)NCC(=O)N[C@@H](Cc1c[nH]cn1)C(=O)N[C@@H](CC(N)=O)C(=O)N[C@H](C(=O)N[C@@H](Cc1ccc(O)cc1)C(N)=O)[C@@H](C)O)C(C)C)[C@@H](C)O
notes: also called 97; compound 97
IC50: 0.568 nM

Binders with a lower IC50, results first:

IC50: 0.172 nM
B2: N^ε1-[2-[2-[2-[[(4S)-4-carboxy-4-(19-carboxynonadecanoylamino)butanoyl]amino]ethoxy]ethoxy]acetyl]-[Ala14,Arg17,Pro21,Pro27,Pro31]-h-amylin (peptide)
peptide: K([AEEA-γGlu-C20 diacid])CNTATCATQRLAAFLRHSSPNFGAIPSSTPVGSNTY-NH2
modifications: disulfide 2-7; N-terminus assumed
SMILES: CC[C@H](C)[C@H](NC(=O)[C@H](C)NC(=O)CNC(=O)[C@H](Cc1ccccc1)NC(=O)[C@H](CC(N)=O)NC(=O)[C@@H]1CCCN1C(=O)[C@H](CO)NC(=O)[C@H](CO)NC(=O)[C@H](Cc1c[nH]cn1)NC(=O)[C@H](CCCNC(=N)N)NC(=O)[C@H](CC(C)C)NC(=O)[C@H](Cc1ccccc1)NC(=O)[C@H](C)NC(=O)[C@H](C)NC(=O)[C@H](CC(C)C)NC(=O)[C@H](CCCNC(=N)N)NC(=O)[C@H](CCC(N)=O)NC(=O)[C@@H](NC(=O)[C@H](C)NC(=O)[C@@H]1CSSC[C@H](NC(=O)[C@@H](N)CCCCNC(=O)COCCOCCNC(=O)CC[C@H](NC(=O)CCCCCCCCCCCCCCCCCCC(=O)O)C(=O)O)C(=O)N[C@@H](CC(N)=O)C(=O)N[C@@H]([C@@H](C)O)C(=O)N[C@@H](C)C(=O)N[C@@H]([C@@H](C)O)C(=O)N1)[C@@H](C)O)C(=O)N1CCC[C@H]1C(=O)N[C@@H](CO)C(=O)N[C@@H](CO)C(=O)N[C@H](C(=O)N1CCC[C@H]1C(=O)N[C@H](C(=O)NCC(=O)N[C@@H](CO)C(=O)N[C@@H](CC(N)=O)C(=O)N[C@H](C(=O)N[C@@H](Cc1ccc(O)cc1)C(N)=O)[C@@H](C)O)C(C)C)[C@@H](C)O
notes: also called 72; compound 72

IC50: 0.166 nM
B4: N^ε1-[2-[2-[2-[[2-[2-[2-[[(4S)-4-carboxy-4-(19-carboxynonadecanoylamino)butanoyl]amino]ethoxy]ethoxy]acetyl]amino]ethoxy]ethoxy]acetyl]-[Arg17,Pro21,Pro27,Pro31 … (peptide)
peptide: K([AEEA-AEEA-γGlu-C20 diacid])CNTATCATQRLANFLRHSSPNFGAIPSSTPVGSNTY-NH2
modifications: disulfide 2-7; N-terminus assumed
SMILES: CC[C@H](C)[C@H](NC(=O)[C@H](C)NC(=O)CNC(=O)[C@H](Cc1ccccc1)NC(=O)[C@H](CC(N)=O)NC(=O)[C@@H]1CCCN1C(=O)[C@H](CO)NC(=O)[C@H](CO)NC(=O)[C@H](Cc1c[nH]cn1)NC(=O)[C@H](CCCNC(=N)N)NC(=O)[C@H](CC(C)C)NC(=O)[C@H](Cc1ccccc1)NC(=O)[C@H](CC(N)=O)NC(=O)[C@H](C)NC(=O)[C@H](CC(C)C)NC(=O)[C@H](CCCNC(=N)N)NC(=O)[C@H](CCC(N)=O)NC(=O)[C@@H](NC(=O)[C@H](C)NC(=O)[C@@H]1CSSC[C@H](NC(=O)[C@@H](N)CCCCNC(=O)COCCOCCNC(=O)COCCOCCNC(=O)CC[C@H](NC(=O)CCCCCCCCCCCCCCCCCCC(=O)O)C(=O)O)C(=O)N[C@@H](CC(N)=O)C(=O)N[C@@H]([C@@H](C)O)C(=O)N[C@@H](C)C(=O)N[C@@H]([C@@H](C)O)C(=O)N1)[C@@H](C)O)C(=O)N1CCC[C@H]1C(=O)N[C@@H](CO)C(=O)N[C@@H](CO)C(=O)N[C@H](C(=O)N1CCC[C@H]1C(=O)N[C@H](C(=O)NCC(=O)N[C@@H](CO)C(=O)N[C@@H](CC(N)=O)C(=O)N[C@H](C(=O)N[C@@H](Cc1ccc(O)cc1)C(N)=O)[C@@H](C)O)C(C)C)[C@@H](C)O
notes: also called 96; compound 96

IC50: 0.091 nM
B5: N^ε1-[2-[2-[2-[[2-[2-[2-[[(4S)-4-carboxy-4-(19-carboxynonadecanoylamino)butanoyl]amino]ethoxy]ethoxy]acetyl]amino]ethoxy]ethoxy]acetyl]-[Arg17,Pro21,Pro27,Pro34 … (peptide)
peptide: K([AEEA-AEEA-γGlu-C20 diacid])CNTATCATQRLANFLRHSSPNFGAIPSSTNVGPNTY-NH2
modifications: disulfide 2-7; N-terminus assumed
SMILES: CC[C@H](C)[C@H](NC(=O)[C@H](C)NC(=O)CNC(=O)[C@H](Cc1ccccc1)NC(=O)[C@H](CC(N)=O)NC(=O)[C@@H]1CCCN1C(=O)[C@H](CO)NC(=O)[C@H](CO)NC(=O)[C@H](Cc1c[nH]cn1)NC(=O)[C@H](CCCNC(=N)N)NC(=O)[C@H](CC(C)C)NC(=O)[C@H](Cc1ccccc1)NC(=O)[C@H](CC(N)=O)NC(=O)[C@H](C)NC(=O)[C@H](CC(C)C)NC(=O)[C@H](CCCNC(=N)N)NC(=O)[C@H](CCC(N)=O)NC(=O)[C@@H](NC(=O)[C@H](C)NC(=O)[C@@H]1CSSC[C@H](NC(=O)[C@@H](N)CCCCNC(=O)COCCOCCNC(=O)COCCOCCNC(=O)CC[C@H](NC(=O)CCCCCCCCCCCCCCCCCCC(=O)O)C(=O)O)C(=O)N[C@@H](CC(N)=O)C(=O)N[C@@H]([C@@H](C)O)C(=O)N[C@@H](C)C(=O)N[C@@H]([C@@H](C)O)C(=O)N1)[C@@H](C)O)C(=O)N1CCC[C@H]1C(=O)N[C@@H](CO)C(=O)N[C@@H](CO)C(=O)N[C@H](C(=O)N[C@@H](CC(N)=O)C(=O)N[C@H](C(=O)NCC(=O)N1CCC[C@H]1C(=O)N[C@@H](CC(N)=O)C(=O)N[C@H](C(=O)N[C@@H](Cc1ccc(O)cc1)C(N)=O)[C@@H](C)O)C(C)C)[C@@H](C)O
notes: also called 98; compound 98
